{"source": "paper PMC3670040", "about": "“Structure of Lipid Kinase p110β/p85β Elucidates an Unusual SH2-Domain-Mediated Inhibitory Mechanism” (Molecular Cell, 2011)", "molecules": {"B1": {"name": "p110β-ΔCter/nic: truncation mutant lacking 17 residues from the p110β C terminus; human ΔCter (1-1053) used in cells (protein, UniProt P42338 1-1053, looked up, fragment)", "chain": "MCFSFIMPPAMADILDIWAVDSQIASDGSIPVDFLLPTGIYIQLEVPREATISYIKQMLWKQVHNYPMFNLLMDIDSYMFACVNQTAVYEELEDETRRLCDVRPFLPVLKLVTRSCDPGEKLDSKIGVLIGKGLHEFDSLKDPEVNEFRRKMRKFSEEKILSLVGLSWMDWLKQTYPPEHEPSIPENLEDKLYGGKLIVAVHFENCQDVFSFQVSPNMNPIKVNELAIQKRLTIHGKEDEVSPYDYVLQVSGRVEYVFGDHPLIQFQYIRNCVMNRALPHFILVECCKIKKMYEQEMIAIEAAINRNSSNLPLPLPPKKTRIISHVWENNNPFQIVLVKGNKLNTEETVKVHVRAGLFHGTELLCKTIVSSEVSGKNDHIWNEPLEFDINICDLPRMARLCFAVYAVLDKVKTKKSTKTINPSKYQTIRKAGKVHYPVAWVNTMVFDFKGQLRTGDIILHSWSSFPDELEEMLNPMGTVQTNPYTENATALHVKFPENKKQPYYYPPFDKIIEKAAEIASSDSANVSSRGGKKFLPVLKEILDRDPLSQLCENEMDLIWTLRQDCREIFPQSLPKLLLSIKWNKLEDVAQLQALLQIWPKLPPREALELLDFNYPDQYVREYAVGCLRQMSDEELSQYLLQLVQVLKYEPFLDCALSRFLLERALGNRRIGQFLFWHLRSEVHIPAVSVQFGVILEAYCRGSVGHMKVLSKQVEALNKLKTLNSLIKLNAVKLNRAKGKEAMHTCLKQSAYREALSDLQSPLNPCVILSELYVEKCKYMDSKMKPLWLVYNNKVFGEDSVGVIFKNGDDLRQDMLTLQMLRLMDLLWKEAGLDLRMLPYGCLATGDRSGLIEVVSTSETIADIQLNSSNVAAAAAFNKDALLNWLKEYNSGDDLDRAIEEFTLSCAGYCVASYVLGIGDRHSDNIMVKKTGQLFHIDFGHILGNFKSKFGIKRERVPFILTYDFIHVIQQGKTGNTEKFGRFRQCCEDAYLILRRHGNLFITLFALMLTAGLPELTSVKDIQYLKDSLALGKSEEEALKQFKQKFDEALRESW"}}, "test_system": "p110β", "assay": "Mass spectrometry assay of PIP3 production in vitro, brain lipids", "type": "biochemical, mouse", "details": "10 nM protein, 100 μM ATP, 1 mg/ml lipid, 60 min; Figure S3A", "procedure": "Figure S3, Related to Figures 1 and 2. Lipid Kinase Assays for p110β/p85 Constructs\n(A) Lipid kinase activity of the p110β/p85β-nic, p110β/p85β-ni and p110β/p85β-ic, p110β C-terminal truncation/p85β-nic (ΔCter) and kinase dead (D913N) constructs as determined by mass spectroscopy. Error bars in panel A and other panels indicate SEM of four replicates.\n(1 picture or pasted object on this page, not shown here)\nVesicles were \"brain lipids\" as in Figure S2. The protein concentration was 10 nM with 100 μM ATP and 1 mg/ml lipid. Reactions were carried out for 60 min. The bars show the integrated areas for the stearoyl-arachidonyl PtdIns(3,4,5)P3 peak.\n(B) ATPase activity (no lipid substrate) of the wild-type and kinase dead p110β/p85β-nic construct in the absence and presence of 10 μM PDGF bis-phosphopeptide. Protein concentration was 75 nM with 100 μM ATP. Shaded bars represent activity for reactions with 5 μM added PI3K inhibitor GDC0941.\n(C) Lipid kinase activity of a p110β/p85-icSH2 complex in which p110β Kα7/Kα8 elbow (966-KTGN) was replaced by the elbow of p110α (968-AQECTK). […]\nThe PIP3 lipids produced in PI3K in vitro assays as described above were also measured by a mass-spectrometry based assay (Clark et al.). […]", "data": [{"molecule": "B1", "values": [{"measurement": "activity with brain lipids", "value": "no measurable activity"}]}]}
